The Human Domainome abundance scans (Beltran et al. 2025)

B1: Gamma-crystallin S, residues 96 to 176; numbered along this chain, P22914 (parent)
chain: IQIFEKGDFSGQMYETTEDCPSIMEQFHMREIHSCKVLEGVWIFYELPNYRGRQYLLDKKEYRKPIDWGAASPAVQSFRRI

Variants of: B1
Test: abundance fitness (aPCA) (normalised: wild type 0, dead -1); higher = more abundant; growth selection in yeast, the domain comes from the species named
Conditions: Homo sapiens

Abundance fitness, by site and new letter:
Q54: C -0.001; T 0.044; P -0.168; I -0.045; G -0.048; K -0.07; R -0.013; E -0.067; W -0.279; Y -0.144; V -0.045; H 0.035; N 0.089; S 0.017; L -0.121; F -0.114
R53: W -0.257; A -0.039; E 0.036; T -0.018; F -0.055; K 0.005; C -0.064; V -0.018; N -0.168; S -0.084; H -0.036; Y -0.129; D 0.048; L -0.059; I -0.163; G -0.039; P -0.169; Q 0.073
L56: F 0.04; K -0.161; R 0.191; P 0.166; E 0.115; V -0.133; W 0.047; C -0.136; M -0.228; G 0.064; D 0.309; Q -0.052; T -0.04; S -0.031
W68: C -0.026; A -0.167; E -0.059
E61: Q -0.05; W 0.086; V 0.084; L -0.135; S -0.358; M -0.028; H -0.205; N 0.035
Y45: V -1.07; T -0.304; W -0.065; R -0.841
E46: D -0.476; N -0.275; P -0.16; H -0.047; Q 0.034; S -0.101; A -0.016; C -0.008; T -0.13; R -0.137; F -0.584; M -0.21; I -0.777; V -0.386; G -0.094; W -0.875; L -0.279
D67: W 0.053; T -0.262; R 0.146; F -0.036; G -0.098; E 0.069; P -0.154; A 0.149; L -0.321; I 0.127; Y -0.144; S 0.037; K -0.127; Q -0.034
P65: Q 0.045; C -0.184; R 0.033; L -0.064; W -0.024; N -0.284; V 0.141; S -0.008; Y 0.199; A 0.094; T 0.059; G -0.009; E -0.004
Y62: A -0.099; P 0.177; V -0.184; S -0.129; T -0.174; G -0.075; C -0.162; N 0.002; M 0.116; F 0.16; H 0.117; W 0.281
G52: A -0.741; M -0.912; T -0.95; V -1.05; L -0.805; F -0.246; P -0.89; K -0.438; S -0.457; Y -0.95; E -0.949; R -0.766; Q -1; D -0.788; W -1.01; C -0.631
R63: E -0.032; S -0.022; F -0.025; D -0.051; T -0.102; Y -0.158; P -0.096; K -0.093; V -0.118; W 0.065; A -0.098; G 0.092; L 0.133
K60: P -0.154; C 0.021; I -0.18; S 0.005; V -0.242; Q 0.064; E -0.049; M 0.078; R -0.143; L -0.035; D -0.251; A -0.001; W -0.116; N 0.111; G 0.017
K64: D -0.118; C -0.146; W -0.24; I -0.368; A 0.034; H -0.372; G 0.031; V 0.002; T -0.164; Q -0.063; R -0.146; P -0.215; L -0.07; Y -0.026
L47: P -0.909; H 0.065; R 0.011; G -0.051; W -0.078; I -0.436; D -0.093; A -0.047; C -0.022; Y 0.019; T -0.285; F 0.046; E -0.004; V -0.667; K 0; M 0.07; Q -0.113; S -0.056; N -0.203
I66: Q 0.185; C 0.131; S 0.061; E 0.007; Y -0.2; L -0.008; K -0.432; G -0.074; W 0.011; T -0.047; A -0.032; R 0.03; M -0.022
R51: D 0; S 0.044; Q -0.035; I -0.04; T 0.1; P -1.03; Y -0.166; H 0.013; W -0.138; A -0.004; M 0.049; L -0.019; E 0.037; V -0.026; K 0.008; N -0.264; G 0.062
Y55: V -0.128; S -0.437; A -0.152; F 0.117; R 0.055; H 0.218; G -0.529; M -0.231; E -0.425; W 0.014; K -0.352; D -0.531; L -0.051
Y50: M -0.072; G -0.421; I -0.851; Q -0.356; C -0.047; W -0.036; T -0.949; R -0.685; V -1.02; H -0.102; L -0.351; F -0.002; P -1.14; D -0.823; S -0.705; K -0.884; E -0.559; N -0.567; A -0.576
N49: R -0.07; E 0.021; W 0.004; K -0.04; V -0.198; D 0.004; H -0.004; G 0.011; T -0.167; A -0.018; F -0.009; Y -0.044; L -0.063; M -0.001; P -0.591; C -0.078
P48: H -0.236; A -0.027; M -0.193; I -0.23; W -0.712; E -0.068; N -0.096; Q -0.011; S -0.1; C -0.129; F -0.388; K 0.006; T 0.002; Y -0.23; R -0.067; G -0.147; L -0.32; D -0.038; V -0.104
K59: T 0.089; A 0.012; P -0.229; E -0.31; I 0.026; H 0.323; V 0.119; W -0.084; M -0.136; Q -0.022; Y -0.077; G -0.133; F -0.107; C -0.104; D -0.153
D58: K 0.012; G 0.031; F -0.099; E 0.085; P -0.342; R 0.04; S 0.014; C 0.054; Y -0.067; W -0.461; V 0.023; T 0.008; A 0.04
L57: T -0.078; G 0.026; R -0.288; C -0.273; K -0.414; P -0.517; N -0.526; A -0.039; V 0.045; M 0.17; F -0.311; Q -0.491; S 0.171
